Measured values reported in patent US12281340B2, “Method of producing N-acyl-amino group-containing compound” (AJINOMOTO CO., INC., priority 2018, dated 2025).

Assay: Synthesis of N-capryloylamino acid using washed microbial cell suspension or microbial cell suspension expressing acylamino acid synthetase
Assay type: cell-based, E coli BL21(DE3)
Settings: UV 210 nm
Protocol: BL21(DE3)/pET-28a-AtGH3-6, BL21(DE3)/pET-28a-OsGH3-8, BL21(DE3)/pET-28a-AtGH3-5, and BL21(DE3)/pET-28a were inoculated to 100 mL of LB medium containing 25 mg/L of kanamycin in a Sakaguchi flask, respectively and cultured with shaking at 37° C. When OD610 reached 0.6, 1 mM IPTG was added, and culturing with shaking was continued at 15° C. for 24 hours.
BL21(DE3)/pET-28a-CfHP was inoculated to 100 mL of LB medium containing 25 mg/L of kanamycin in a Sakaguchi flask, and cultured with shaking at 37° C. When OD610 reached 0.2, 1 mM IPTG was added, and culturing with shaking was continued at 15° C. for 24 hours.
After completion of the culture, microbial cells were collected from 5 mL of the resulting culture medium by centrifugation and washed with 20 mM Tris-HCl (pH 7.6) followed by being suspended in 1 mL of 20 mM Tris-HCl (pH 7.6) to use as a washed microbial cell suspension.
After completion of the culture, 15 mL of the resulting culture medium was concentrated to 3 mL by centrifugation to use as a microbial cell suspension.
0.3 mL of a reaction solution containing 33.3 mM Tris-HCl, 3.3 mM amino acid, 3.3 mM sodium caprylate, 6.7 mM or 0 mM ATP, 6.7 mM MgCl2, 0.7 mM DTT, 30 μg of the microbial cell suspension (cell free extract solution, washed microbial suspension, microbial suspension), pH 8.0 was incubated at 25° C. for 24 hours. As the amino acid, L-Asp was used in AtGH3-6, OsGH3-8, AtGH3-5, and Gly or L-Ala was used in CfHP. After completion of the reaction, 0.8 mL of the reaction stop solution (1% (v/v) phosphoric acid, 75% (v/v) methanol) was added, and the mixture was filtrated through the filter followed by being subjected to the UPLC-MS analysis to detect a signal of a molecular weight corresponding to the N-capryloylamino acid. The condition for the UPLC-MS analysis is as described in Example 2. As a result of the UPLC-MS analysis, the signal of the molecular weight corresponding to the appropriate N-capryloylamino acid was confirmed in the reaction solution using the microbial cell suspension and the like shown in Table 8 below.
As a result of quantifying the produced N-acylamino acid by detection at UV 210 nm, when Gly was used as the substrate in CfHP, 2.8 mM, 2.2 mM and 2.6 mM N-capryloylamino acids were detected in the washed microbial cell suspension, the microbial cell suspension (in the presence of ATP) and the microbial cell suspension (in the absence of ATP), respectively. When L-Ala was used as the substrate in CfHP, 2.4 mM, 0.9 mM and 1.0 mM N-capryloylamino acids were detected in the washed microbial cell suspension, the microbial cell suspension (in the presence of ATP) and the microbial cell suspension (in the absence of ATP), respectively.

B1: CfHP: hypothetical protein from Cystobacter fuscus (GH3 protein), His-tagged (protein, listed as Cystobacter fuscus)
chain: MQAAGRRDKQRFIEQTRHVARVNVDTLRAILQHNRDTDFGRRHGFASLRTVEDFQRALPVSTYEPFRPYMERIARGEQNVLTADRVEYLGITSGTTGQRKLLPVSRPHLENMRRTMMIGRAVVTEKVPAARRPSRGMILMNAVLRERSEGGLLTGALTAISTHSMGRAASFAFTSPPEAFRLRKHADALYLHLLFGLRERELGTLMAPFASGLLDMVHLLERRGADLVDDIARGVLRPELDLEPEQRRLLQSRLLPDPERAREVSQALEQGPHGLLRRLWPRLAYVSSITGASFSLYTRQLTPYLEGVPLSAASYVSTEGILGVPLELEQAVYCLMVGMAFFEFIPERELDAESPTTLLPEQLVEGEAYEVVLTTQAGLYRYRLGDVVRIVGRYHEAPLMEFLYRRGALLNLMGEKTSEHAARLALEQALATEGLLPADYSVVEETETLPGRYALFVELQEGARPQGAPEQLSRALEEALCRTNPFYEVIRRSERLGAAQLHRVEPGTFQALRDVLVQRGASPTQVKVPRVVRDAELQGLLRQRRVTG
modifications: His-tag
notes: hypothetical protein from Cystobacter fuscus (GH3 protein), His-tagged
B1 showed a N-capryloylamino acid detected (Gly as substrate, microbial cell suspension (in the absence of ATP)) of 2.6 mM, a N-capryloylamino acid detected (Gly as substrate, microbial cell suspension (in the presence of ATP)) of 2.2 mM and a N-capryloylamino acid detected (Gly as substrate, washed microbial cell suspension) of 2.8 mM. It also gave a N-capryloylamino acid detected (L-Ala as substrate, microbial cell suspension (in the absence of ATP)) of 1.0 mM, a N-capryloylamino acid detected (L-Ala as substrate, microbial cell suspension (in the presence of ATP)) of 0.9 mM and a N-capryloylamino acid detected (L-Ala as substrate, washed microbial cell suspension) of 2.4 mM.
